Test results: US6489446 (HSC RESEARCH AND DEVELOPMENT LIMITED PARTNERSHIP, dated 2002)

B1: MFU-2 of human elastin (other)
chain: FPGFGVGVGGIPGVAGVPGVGGVPGVGGVPGVGISPEAQAAAAAKAAKYGVGTPAAAAAKAAAKAAQFGLVPGVGVAPGVGVAPGVGVAPGVGLAPGVGVAPGVGVAPGVGVAPAIGPEAQAAAAAKAAKYGVGTPAAAAAKAAAKAAQFGLVPGVGVAPGVGVAPGVGVAPGVGLAPGVGVAPGVGVAPGVGVAPAIGP
notes: Tandem duplicate of MFU-1, expressed with techniques similar to those for MFU-1
B2: Minimal Functional Unit-1 (MFU-1) of human elastin (other)
chain: GAGGFPGFGVGVGGIPGVAGVPGVGGVPGVGGVPGVGISPEAQAAAAAKAAKYGVGTPAAAAAKAAAKAAQFGLVPGVGVAPGVGVAPGVGVAPGVGLAPGVGVAPGVGVAPGVGVAPAIGPGGVA
modifications: radioactively labeled valine and glycine (only in the chicken elastin experiments of Example 4)
notes: also called human elastin MFU-1; Fraction 1

Assays:
[1] = biological target: the molecule itself; assay: coacervation of MFU-2 in solution; self-association
[2] = biological target: T1, matrix of insoluble elastin prepared from chicken aortic tissue (chicken, UniProt P07916 25-750); assay: estimate from bound radiolabelled MFU-1, assuming a 6 nm cross-sectional diameter
T1 construct: mature; Insoluble cross-linked tissue matrix, not a defined soluble protein; also called chicken elastin; chicken elastin matrix
T1 sequence (looked up): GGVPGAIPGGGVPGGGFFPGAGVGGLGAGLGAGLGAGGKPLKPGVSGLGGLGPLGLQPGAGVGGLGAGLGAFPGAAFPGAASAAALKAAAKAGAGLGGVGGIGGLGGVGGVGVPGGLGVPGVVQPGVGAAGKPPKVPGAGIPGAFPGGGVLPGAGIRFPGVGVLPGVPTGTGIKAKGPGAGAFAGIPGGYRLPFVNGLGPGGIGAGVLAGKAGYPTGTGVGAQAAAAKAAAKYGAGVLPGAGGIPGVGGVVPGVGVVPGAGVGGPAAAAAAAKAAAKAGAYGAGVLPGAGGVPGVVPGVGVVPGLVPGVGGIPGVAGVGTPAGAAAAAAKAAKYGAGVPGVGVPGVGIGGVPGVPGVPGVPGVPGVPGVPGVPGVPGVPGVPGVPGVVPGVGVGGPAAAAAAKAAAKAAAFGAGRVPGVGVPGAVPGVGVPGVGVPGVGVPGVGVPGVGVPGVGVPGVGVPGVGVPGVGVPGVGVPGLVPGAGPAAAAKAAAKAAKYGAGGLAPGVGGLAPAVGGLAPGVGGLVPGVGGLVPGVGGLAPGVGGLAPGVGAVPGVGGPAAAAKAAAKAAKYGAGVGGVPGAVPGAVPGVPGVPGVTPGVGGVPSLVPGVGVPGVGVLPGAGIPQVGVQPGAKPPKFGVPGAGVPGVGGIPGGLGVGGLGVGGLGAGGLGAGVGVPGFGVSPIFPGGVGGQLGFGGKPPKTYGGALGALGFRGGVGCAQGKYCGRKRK
Description: A matrix of insoluble elastin was prepared from chicken aortic tissue by a cyanogen bromide extraction method. This insoluble, non-human elastin matrix was incubated for 16 hours at 37° in phosphate-buffered saline, at pH 7.4, in the presence of radioactively labeled human MFU-1 prepared as described above. The tissue was then washed extensively with phosphate-buffered saline at pH 7.4.
Estimation of surface coverage assumed a cross-sectional diameter of the human MFU-1 of 6 nm. It was estimated that about 1–3 µg of human MFU-1 per mg chicken elastin matrix remained firmly associated with the insoluble matrix of chicken elastin.

Binder | binding result [1] | surface coverage of the chicken elastin matrix [2] [fold]
B1 | binds | 
B2 |  | ≤ 200
